Measured values reported in publication PMC9335243.

Biological target: T. laurifolia Δ6-18:0-ACP desaturase, N-11 truncation (Thunbergia laurifolia)
Test: crystal structure

T. laurifolia Δ6-18:0-ACP desaturase, N-11 truncation (enzyme)
stoichiometry N: 2
